From PMC7019167, “Development of a high affinity Anticalin® directed against human CD98hc for theranostic applications” (Theranostics, 2020)
Changes are numbered by the printed parent chain. Values belong to the binder of their own block, whether it stands above or below them.

Tests used:
[1] = target: T1, glycosylated human CD98hc ectodomain (hCD98hcEDg), monobiotinylated (human, UniProt P08195-2 111-529, single biotin group on the biotin acceptor peptide (BirA co-expressed); N-glycosylated); experiment: SPR; biotinylated hCD98hcEDg immobilised (ΔRU ≈ 225) on a streptavidin-functionalized sensorchip (Biotin CAPture kit); BIAcore 2000, 25 °C, HBS-T (20 mM Hepes/NaOH pH 7.5, 150 mM NaCl, 0.005% Tween 20); single cycle kinetics, five injections of a 1:2 dilution series of the lipocalin variant; global 1:1 Langmuir fit; KD = koff/kon; settings: both partners purified
T1 construct: human CD98 heavy chain, extracellular domain, UniProt ID P08195-2, residues Glu111-Ala529; also called 4F2hc; SLC3A2; not shown: biotin acceptor peptide (BAP), N-terminal, kept
T1 sequence (looked up): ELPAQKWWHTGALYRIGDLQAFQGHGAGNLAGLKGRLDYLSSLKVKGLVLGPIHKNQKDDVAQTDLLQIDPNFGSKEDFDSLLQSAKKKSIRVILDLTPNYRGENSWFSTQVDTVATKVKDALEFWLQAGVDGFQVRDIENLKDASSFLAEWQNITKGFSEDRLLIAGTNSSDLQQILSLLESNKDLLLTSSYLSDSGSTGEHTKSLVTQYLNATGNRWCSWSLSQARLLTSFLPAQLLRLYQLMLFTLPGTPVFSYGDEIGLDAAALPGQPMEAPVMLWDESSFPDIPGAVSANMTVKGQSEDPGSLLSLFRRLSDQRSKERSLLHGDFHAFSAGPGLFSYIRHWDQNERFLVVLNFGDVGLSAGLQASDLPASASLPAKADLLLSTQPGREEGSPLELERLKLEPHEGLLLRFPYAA

[2] = target: human CD98hc ectodomain, unglycosylated, biotinylated (hCD98hcED) (human) (UniProt P08195); experiment: SPR; single cycle kinetics (five injections of a 1:2 dilution series, 3500 s dissociation); biotinylated hCD98hcED immobilised on a streptavidin sensorchip (Biotin CAPture kit), lipocalin variant as analyte; 25 °C, HBS-T; global 1:1 Langmuir fit

- Kd [1]: 162 ± 20.9 nM
- koff [1]: 0.09 s⁻¹
- kon [1]: 560000 M⁻¹ s⁻¹
B1: lipocalin variant (Anticalin) P1E4 (designed binder)
chain: QDSTSDLIPAPPLSKVPLQQNFQDNQFHGKWYVVGIAGNSMLREDKDPFKMTATIYELKEDKSYNVTRVRFDDKKCLYRILTFVPGSQPGEFTLGNIKSRPGWTSWLVRVVSTNYNQHAMVFFKRVHQNRETFWITLYGRTKELTSELKENFIRFSKSLGLPENHIVFPVPIDQCIDG
notes: source: E. coli JM83, periplasmic extract, purified (IMAC, SEC)

- koff [1]: 5e-05 s⁻¹
- kon [1]: 300000 M⁻¹ s⁻¹
B2: lipocalin variant (Anticalin) P3D11 (designed binder)
chain: QDSTSDLIPAPPLSKVPLQQNFQDNQFHGKWYVVGRAGNTGLREDKDPGKMFATIYELKEDKSYNVTYVWFGQKKCMYSIGTFVPGSQPGEFTLGNIKSAPGRTSWLVRVVSTNYNQHAMVFFKSVTQNREGFAITLYGRTKELTSELKENFIRFSKSLGLPENHIVFPVPIDQCIDG
notes: as for B1

- Kd [2]: 0.06 nM
- koff [2]: 2.6e-05 s⁻¹
- kon [2]: 450000 M⁻¹ s⁻¹
- τ1/2 (complex half-life) [2]: 7.37 h
- Kd [1]: 0.05 ± 0.003 nM
- koff [1]: 2.2e-05 s⁻¹
- kon [1]: 460000 M⁻¹ s⁻¹
B3: Anticalin D11vs (P3D11 with Phe71Ser and Gly81Val) (designed binder)
chain: B2 chain with F71S, G81V
notes: source: E. coli, soluble protein at preparative scale, purified
